Data taken from article PMC12094245.

Biological target: human recombinant NEK2 protein (Abcam, ab42599), RED-NHS labelled (human) (UniProt P51955)
Assay: MST

B1: SPTLC1 protein tested in the MST assay (enzyme)
chain: MATATEQWVLVEMVQALYEAPAYHLILEGILILWIIRLLFSKTYKLQERSDLTVKEKEELIEEWQPEPLVPPVPKDHPALNYNIVSGPPSHKTVVNGKECINFASFNFLGLLDNPRVKAAALASLKKYGVGTCGPRGFYGTFDVHLDLEDRLAKFMKTEEAIIYSYGFATIASAIPAYSKRGDIVFVDRAACFAIQKGLQASRSDIKLFKHNDMADLERLLKEQEIEDQKNPRKARVTRRFIVVEGLYMNTGTICPLPELVKLKYKYKARIFLEESLSFGVLGEHGRGVTEHYGINIDDIDLISANMENALASIGGFCCGRSFVIDHQRLSGQGYCFSASLPPLLAAAAIEALNIMEENPGIFAVLKEKCGQIHKALQGISGLKVVGESLSPAFHLQLEESTGSREQDVRLLQEIVDQCMNRSIALTQARYLEKEEKCLPPPSIRVVVTVEQTEEELERAASTIKEVAQAVLL
Binder B1 has a Kd of 350 nM.
